From the supplement of paper PMC9112550, “Optimization of the antimicrobial peptide Bac7 by deep mutational scanning” (BMC Biology, 2022) come the findings set out here.

This data set concerns Escherichia coli TOP10. Nature of the data set: shrunken log2 fold change of peptide-encoding DNA abundance (4.5 h post-induction vs induction); higher = less antimicrobial activity (less host growth inhibition). The note with it: time post-induction: 4.5 h; library: site-saturation at positions 5, 18, 19, 20.
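Also: peptides expressed intracellularly from a pBAD plasmid library in pooled LB shake-flask culture, induced with 0.3% L-arabinose, DNA abundance read by NGS, three biological replicates, DESeq2 with apeglm shrinkage.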

Take RRIRMRPPRLPRPRPRPSTEPRP: the “shrunken log2 fold change” value was determined as 1.63.
Turning to RRIRSRPPRLPRPRPRPLRNPRP, the “shrunken log2 fold change” value was 1.38.
The value for RRIRLRPPRLPRPRPRPYLCPRP was -0.0953; that for RRIRERPPRLPRPRPRPSWPPRP was -0.079.
In the case of RRIRVRPPRLPRPRPRPECAPRP, the “shrunken log2 fold change” value worked out at 0.376.
The value for RRIRWRPPRLPRPRPRPCVPPRP was -0.035; that for RRIRIRPPRLPRPRPRPSYKPRP was -1.42; that for RRIRSRPPRLPRPRPRPQAIPRP was 0.0296.
RRIRGRPPRLPRPRPRPCMGPRP: the “shrunken log2 fold change” value was 0.289.
With RRIRHRPPRLPRPRPRPYWRPRP, the “shrunken log2 fold change” value is -0.347.
On to RRIRPRPPRLPRPRPRPAIAPRP, for which the “shrunken log2 fold change” value turned out to be 0.194.
For RRIRIRPPRLPRPRPRPQCNPRP, the “shrunken log2 fold change” value is -0.0824.
Regarding RRIRVRPPRLPRPRPRPCDNPRP, the “shrunken log2 fold change” value was -0.418.
RRIRSRPPRLPRPRPRPPLGPRP: the “shrunken log2 fold change” value stood at 0.399.
The value for RRIRNRPPRLPRPRPRPDWKPRP was -0.11; that for RRIRARPPRLPRPRPRPASYPRP was 0.187.
Take RRIRERPPRLPRPRPRPAWQPRP: the “shrunken log2 fold change” value was -0.109.
For RRIRQRPPRLPRPRPRPFRFPRP, the “shrunken log2 fold change” value came to 0.0421.
With RRIRFRPPRLPRPRPRPAITPRP, the “shrunken log2 fold change” value is -0.136.
The value for RRIRERPPRLPRPRPRPPPHPRP was 0.619; that for RRIRLRPPRLPRPRPRPKEIPRP was -0.00121.
As for RRIRQRPPRLPRPRPRPLWGPRP, the “shrunken log2 fold change” value is -0.0254.
For the sequence RRIRHRPPRLPRPRPRPWAIPRP, the “shrunken log2 fold change” value came out at 0.112.
Consider RRIRQRPPRLPRPRPRPAPLPRP, for which the “shrunken log2 fold change” value worked out at 0.451.
Consider RRIRYRPPRLPRPRPRPYNRPRP, for which the “shrunken log2 fold change” value was -0.0152.
As for RRIRKRPPRLPRPRPRPGATPRP, the “shrunken log2 fold change” value is 1.09.
For the sequence RRIRPRPPRLPRPRPRPQNCPRP, the “shrunken log2 fold change” value is -0.621.
For RRIRERPPRLPRPRPRPDMFPRP, the “shrunken log2 fold change” value is -0.0153.
With RRIRSRPPRLPRPRPRPETRPRP, the “shrunken log2 fold change” value came to 0.192.
The value for RRIRHRPPRLPRPRPRPRWMPRP was -0.209; that for RRIRIRPPRLPRPRPRPVYSPRP was -0.102; that for RRIRYRPPRLPRPRPRPMIMPRP was -0.0957.
For the sequence RRIRGRPPRLPRPRPRPHLQPRP, the “shrunken log2 fold change” value was found to be 0.479.
Take RRIRTRPPRLPRPRPRPLAGPRP: the “shrunken log2 fold change” value came out at 0.0232.
With RRIRRRPPRLPRPRPRPDYEPRP, the “shrunken log2 fold change” value is -0.115.
For the sequence RRIRVRPPRLPRPRPRPLNQPRP, the “shrunken log2 fold change” value was -0.0183.
The value for RRIRWRPPRLPRPRPRPTGTPRP was 0.288; that for RRIRKRPPRLPRPRPRPQKVPRP was -0.0143; that for RRIRSRPPRLPRPRPRPADQPRP was 0.58.
As for RRIRPRPPRLPRPRPRPMNNPRP, the “shrunken log2 fold change” value is -0.916.
In the case of RRIRERPPRLPRPRPRPGCKPRP, the “shrunken log2 fold change” value turned out to be 0.0591.
The value for RRIRPRPPRLPRPRPRPDIIPRP was 0.00942; that for RRIRGRPPRLPRPRPRPDTGPRP was -0.0756.
Consider RRIRHRPPRLPRPRPRPGHPPRP, for which the “shrunken log2 fold change” value was -0.00757.
Regarding RRIRIRPPRLPRPRPRPVWIPRP, the “shrunken log2 fold change” value is -0.242.
As to RRIRIRPPRLPRPRPRPYEQPRP, the “shrunken log2 fold change” value was -0.868.
With RRIRQRPPRLPRPRPRPHCQPRP, the “shrunken log2 fold change” value is -0.39.
In the case of RRIRTRPPRLPRPRPRPRAHPRP, the “shrunken log2 fold change” value was -0.186.
On to RRIRDRPPRLPRPRPRPDLDPRP, for which the “shrunken log2 fold change” value worked out at 0.632.
Turning to RRIRTRPPRLPRPRPRPPAYPRP, the “shrunken log2 fold change” value is -0.0816.
As for RRIRFRPPRLPRPRPRPYVNPRP, the “shrunken log2 fold change” value was -1.52.
Take RRIRVRPPRLPRPRPRPGYAPRP: the “shrunken log2 fold change” value worked out at 0.0532.
As for RRIRFRPPRLPRPRPRPKTQPRP, the “shrunken log2 fold change” value is 0.397.
For RRIRGRPPRLPRPRPRPLCKPRP, the “shrunken log2 fold change” value came out at 0.529.
Take RRIRARPPRLPRPRPRPIHLPRP: the “shrunken log2 fold change” value was -0.633.
RRIRWRPPRLPRPRPRPQHKPRP: the “shrunken log2 fold change” value is -0.0725.
As to RRIRGRPPRLPRPRPRPLKWPRP, the “shrunken log2 fold change” value turned out to be 0.367.
On to RRIRERPPRLPRPRPRPVAMPRP, for which the “shrunken log2 fold change” value was -0.00351.
On to RRIRFRPPRLPRPRPRPHVLPRP, for which the “shrunken log2 fold change” value was -0.286.
As for RRIRMRPPRLPRPRPRPCVTPRP, the “shrunken log2 fold change” value was 0.0301.
The value for RRIRARPPRLPRPRPRPPKMPRP was 0.298; that for RRIRDRPPRLPRPRPRPPYAPRP was 0.0432; that for RRIRVRPPRLPRPRPRPWDWPRP was 0.163.
With RRIRNRPPRLPRPRPRPLHYPRP, the “shrunken log2 fold change” value is -0.147.
For the sequence RRIRRRPPRLPRPRPRPNLNPRP, the “shrunken log2 fold change” value was -0.0389.
As for RRIRARPPRLPRPRPRPWHIPRP, the “shrunken log2 fold change” value came to 0.0256.
Regarding RRIRDRPPRLPRPRPRPVAFPRP, the “shrunken log2 fold change” value came to 0.589.
Consider RRIRHRPPRLPRPRPRPYSEPRP, for which the “shrunken log2 fold change” value is -0.29.
Turning to RRIRERPPRLPRPRPRPDDWPRP, the “shrunken log2 fold change” value was -0.0125.
Turning to RRIRMRPPRLPRPRPRPQQDPRP, the “shrunken log2 fold change” value is 0.741.
On to RRIRWRPPRLPRPRPRPHWEPRP, for which the “shrunken log2 fold change” value is 0.323.
With RRIRFRPPRLPRPRPRPYLTPRP, the “shrunken log2 fold change” value is -0.875.
For the sequence RRIRCRPPRLPRPRPRPTYKPRP, the “shrunken log2 fold change” value was -0.267.
In the case of RRIRPRPPRLPRPRPRPWQIPRP, the “shrunken log2 fold change” value turned out to be 0.452.
As for RRIRWRPPRLPRPRPRPRCRPRP, the “shrunken log2 fold change” value was 0.371.
The value for RRIRERPPRLPRPRPRPGWLPRP was 0.256.
As for RRIRCRPPRLPRPRPRPMTAPRP, the “shrunken log2 fold change” value was determined as 0.0275.
On to RRIRARPPRLPRPRPRPWIGPRP, for which the “shrunken log2 fold change” value amounted to 0.15.
For the sequence RRIRKRPPRLPRPRPRPIRDPRP, the “shrunken log2 fold change” value is -0.016.
With RRIRKRPPRLPRPRPRPTFWPRP, the “shrunken log2 fold change” value was determined as 0.36.
With RRIRMRPPRLPRPRPRPGLHPRP, the “shrunken log2 fold change” value is 0.412.
The value for RRIRDRPPRLPRPRPRPWLEPRP was 0.098; that for RRIRIRPPRLPRPRPRPDTFPRP was -0.364; that for RRIRVRPPRLPRPRPRPITFPRP was -0.0498.
Regarding RRIRGRPPRLPRPRPRPFEKPRP, the “shrunken log2 fold change” value amounted to 0.22.
Turning to RRIRQRPPRLPRPRPRPSWAPRP, the “shrunken log2 fold change” value is -0.0374.
The value for RRIRIRPPRLPRPRPRPMTLPRP was 0.0505; that for RRIRYRPPRLPRPRPRPIEKPRP was -0.203.
The value for RRIRFRPPRLPRPRPRPDMGPRP was -0.176; that for RRIRRRPPRLPRPRPRPWNRPRP was -0.049.
As for RRIRCRPPRLPRPRPRPIPMPRP, the “shrunken log2 fold change” value was -0.108.
